The results in this text go back to patent publication US20220041721A1 (WUHAN YZY BIOPHARMA, published 2022).

The target of one test is T1, monkey CD3 (monkey).
T1 construct: whole, on cells; also called CD3 on monkey CD3 positive T cells
The test is described as follows: flow cytometry on monkey CD3 positive T cells. Background: Flow cytometry measures light scatter and fluorescence of single cells or particles in a stream.

Another test addresses T2, human CD3 (human, UniProt P07766 23-207).
T2 construct: whole, on cells; Assays used CD3 positive T cells (or CIK cells) from human blood; also called Human CD3ϵ; CD3 on human CD3 positive T cells
The test is described as follows: flow cytometry on human CD3 positive T cells.

B1: IC-6 (bispecific antibody, human IgG1, kappa)
scFv: EVQLVESGGGLVQPGGSLRLSCAASGFTFSTYAMNWVRQAPGKGLEWVARIRSKYNNYATYYADSVKDRFTISRDDSKNTLYLQMNSLRAEDTAVYYCARHGNFGNSYVSWFAYWGQGTMVTVSSGGGGSGGGGSGGGGSQAVVTQEPSLTVSPGGTVTLTCGSSTGAVTTSNYANWVQQKPGQAPRGLIGGTNKRAPGVPARFSGSLLGGKAALTLSGAQPEDEAEYYCALWYSNLWVFGGGTKLEIKGGGGSDKTHTCPPCPAPEFEGGPSVFLFPPKPKDTLMISRTPEVTCVVVDVSHEDPEVKFNWYVDGVEVHNAKTKPREEQYNSTYRVVSVLTVLHQDWLNGKEYKCKVSNKALPASIEKTISKAKGQPREPQVCTLPPSRDELTKNQVSLSCAVKGFYPSDIAVEWESNGQPENNYKTTPPVLDSDGSFFLVSKLTVDKSRWQQGNVFSCSVMHEALHNHYTQKSLSLSPGK
heavy: EVKLDETGGGLVQPGRPMKLSCVASGFTFSDYWMNWVRQSPEKGLEWVAQIRNKPYNYETYYSDSVKGRFTISRDDSKSSVYLQMNNLRVEDMGIYYCTGSYYGMDYWGQGTSVTVSSASTKGPSVFPLAPSSKSTSGGTAALGCLVKDYFPEPVTVSWNSGALTSGVHTFPAVLQSSGLYSLSSVVTVPSSSLGTQTYICNVNHKPSNTKVDKKVEPKSCDKTHTCPPCPAPEFEGGPSVFLFPPKPKDTLMISRTPEVTCVVVDVSHEDPEVKFNWYVDGVEVHNAKTKPREEQYNSTYRVVSVLTVLHQDWLNGKEYKCKVSNKALPASIEKTISKAKGQPREPQVYTLPPCRDELTKNQVSLWCLVKGFYPSDIAVEWESNGQPENNYKTTPPVLDSDGSFFLYSKLTVDKSRWQQGNVFSCSVMHEALHNHYTQKSLSLSPGK
light: DVVMTQTPLSLPVSLGDQASISCRSSQSLVHSNGNTYLRWYLQKPGQSPKVLIYKVSNRFSGVPDRFSGSGSGTDFTLKISRVEAEDLGVYFCSQSTHVPWTFGGGTKLEIKRTVAAPSVFIFPPSDEQLKSGTASVVCLLNNFYPREAKVQWKVDNALQSGNSQESVTEQDSKDSTYSLSSTLTLSKADYEKHKVYACEVTHQGLSSPVTKSFNRGEC
notes: Comparative: 4420 Fab arm and anti-CD3 scFv (CD3 antibody 1 VH, CD3 antibody 2 VL)-Fc fusion peptide
With B1, the EC50 – broadly, the concentration that produces a half-maximal response – is 0.154 µM with monkey CD3 and 0.118 µM with human CD3.

B2: IC-4 (bispecific antibody, human IgG1, kappa)
scFv: EVQLVESGGGLVQPGGSLRLSCAASGFTFSTYAMNWVRQAPGKGLEWVARIRSKYNNYATYYADSVKDRFTISRDDSKNTLYLQMNSLRAEDTAVYYCARHGNFGNSYVSWFAYWGQGTMVTVSSGGGGSGGGGSGGGGSQAVVTQEPSLTVSPGGTVTLTCRSSTGAVTTSNYANWVQQKPGQAPRGLIGGTNKRAPGTPARFSGSLLGGKAALTLSGVQPEDEAEYYCALWYSNLWVFGGGTKLTVLGGGGSDKTHTCPPCPAPEFEGGPSVFLFPPKPKDTLMISRTPEVTCVVVDVSHEDPEVKFNWYVDGVEVHNAKTKPREEQYNSTYRVVSVLTVLHQDWLNGKEYKCKVSNKALPASIEKTISKAKGQPREPQVCTLPPSRDELTKNQVSLSCAVKGFYPSDIAVEWESNGQPENNYKTTPPVLDSDGSFFLVSKLTVDKSRWQQGNVFSCSVMHEALHNHYTQKSLSLSPGK
heavy: EVKLDETGGGLVQPGRPMKLSCVASGFTFSDYWMNWVRQSPEKGLEWVAQIRNKPYNYETYYSDSVKGRFTISRDDSKSSVYLQMNNLRVEDMGIYYCTGSYYGMDYWGQGTSVTVSSASTKGPSVFPLAPSSKSTSGGTAALGCLVKDYFPEPVTVSWNSGALTSGVHTFPAVLQSSGLYSLSSVVTVPSSSLGTQTYICNVNHKPSNTKVDKKVEPKSCDKTHTCPPCPAPEFEGGPSVFLFPPKPKDTLMISRTPEVTCVVVDVSHEDPEVKFNWYVDGVEVHNAKTKPREEQYNSTYRVVSVLTVLHQDWLNGKEYKCKVSNKALPASIEKTISKAKGQPREPQVYTLPPCRDELTKNQVSLWCLVKGFYPSDIAVEWESNGQPENNYKTTPPVLDSDGSFFLYSKLTVDKSRWQQGNVFSCSVMHEALHNHYTQKSLSLSPGK
light: DVVMTQTPLSLPVSLGDQASISCRSSQSLVHSNGNTYLRWYLQKPGQSPKVLIYKVSNRFSGVPDRFSGSGSGTDFTLKISRVEAEDLGVYFCSQSTHVPWTFGGGTKLEIKRTVAAPSVFIFPPSDEQLKSGTASVVCLLNNFYPREAKVQWKVDNALQSGNSQESVTEQDSKDSTYSLSSTLTLSKADYEKHKVYACEVTHQGLSSPVTKSFNRGEC
notes: Comparative: 4420 Fab arm and anti-CD3 scFv (CD3 antibody 1 VH/VL)-Fc fusion peptide
Regarding B2, the EC50 was determined as 0.296 µM with monkey CD3 and 0.197 µM with human CD3.
